Laboratory results from IntAct's records for PubMed 22309289.

B1: Protein X (Hepatitis B virus genotype D subtype ayw (isolate France/Tiollais/1979)), P03165 (parent)
chain: MAARLCCQLDPARDVLCLRPVGAESRGRPFSGSLGTLSSPSPSAVPTDHGAHLSLRGLPVCAFSSAGPCALRFTSARRMETTVNAHQILPKVLHKRTLGLSAMSTTDLEAYFKDCLFKDWEELGEEIRLKVFVLGGCRHKLVCAPAPCNFFTSA

Variants of: B1
Conditions: with akt1_human AKT1, P31749
akt1_human AKT1, P31749, sequence (P31749 whole entry): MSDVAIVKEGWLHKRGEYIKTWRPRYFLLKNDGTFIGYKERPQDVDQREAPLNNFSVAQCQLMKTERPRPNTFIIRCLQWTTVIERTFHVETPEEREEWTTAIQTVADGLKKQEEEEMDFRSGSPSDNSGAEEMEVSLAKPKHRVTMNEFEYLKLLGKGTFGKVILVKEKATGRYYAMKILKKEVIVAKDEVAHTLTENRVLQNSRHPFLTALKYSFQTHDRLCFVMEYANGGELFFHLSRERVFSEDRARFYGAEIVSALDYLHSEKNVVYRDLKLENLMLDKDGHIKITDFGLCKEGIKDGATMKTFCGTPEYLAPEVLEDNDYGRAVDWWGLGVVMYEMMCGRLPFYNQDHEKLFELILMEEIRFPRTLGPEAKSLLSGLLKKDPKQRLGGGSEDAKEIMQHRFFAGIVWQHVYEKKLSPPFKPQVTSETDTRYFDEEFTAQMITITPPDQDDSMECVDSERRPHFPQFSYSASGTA

Row | Variant | effect of a mutation on the interaction
1 | S31A | disrupting interaction
